B1: h_Nb4 (expressed from pFUSE-hIgG1-Fc) (Fc fusion)
chain: DVQLQESGGGLVQAGGSLRLSCAAPSRMFSGYTMGWYRQAPGKQRELVAQIANGGFTDYIDSVKGRFSISRDTVLNMMYLQMNSLKPEDTAVYYCNLVLVNGIPTRNWGQGTQVTVSS
notes: not shown: human IgG1 Fc as encoded by the pFUSE-hIgG1-Fc vector
B2: h_Nb12 (expressed from pFUSE-hIgG1-Fc) (Fc fusion)
chain: DVQLQESGGGLVQAGGSLRLSCAASGRTFSSRAMGWFRQAPGKEREFVAAISGSGRNTYYADSVKGRFTISRDNAKNSVNLQMNSLKPEDTAVYYCNAAGGGITIATMTQRTQYDYWGQGTQVTVSS
notes: as for B1
B3: h_Nb9 (expressed from pFUSE-hIgG1-Fc) (Fc fusion)
chain: DVQLQESGGGLVQPGGSLRLSCASSGSIFGLGVKGWYRQPPGNQREMVAQIISGGRISYADSVKGRFTISRDNAKNTVYLQMNSLKPEDTAVYYCNAWGPGQRNYWGRGTQVTVSS
notes: as for B1
B4: h_Nb5 (expressed from pFUSE-hIgG1-Fc) (Fc fusion)
chain: DVQLQESGGGAVQSGESLRLSCAASGRDLMFYDVAWFRQAPGKEREGVSYIRSSGTLTKYADSVKGRFTISRDNDKNTVSLQMNSLNPEDTAKYYCAARLQSATSHSDLREDEFNSWGQGTQVTVSS
notes: as for B1
B5: h_Nb6 (expressed from pFUSE-hIgG1-Fc) (Fc fusion)
chain: DVQLQESGGGLAQPGGSLRLSCAASGFTFSSYAMSWARQAPGKGLEWVAGIYRGGSDTYYADSVKGRFTISRDNTKNTLYLQMNSLKPEDTALYYCIQGWGLGYANYDYWGQGTQVTVSS
notes: as for B1
B6: h_Nb13 (expressed from pFUSE-hIgG1-Fc) (Fc fusion)
chain: DVQLQESGGGLVQPGGSLRLSCAASGSIFSINAMGWYRQAPGKSRELVAAITSGGSTNYADSVKGRFTISRDTAKNTVYLLMNSLEPEDTAVYYCNVERRRPPHYLSEYDFDWGQGTQVTVSS
notes: as for B1
B7: h_Nb26 (expressed from pFUSE-hIgG1-Fc) (Fc fusion)
chain: DVQLQESGGGLVQPGGSLRLSCAAPGSIFRINAMGWYRQAPGKQRELVAAITSGGSTNYADSVQGRFTISRDNAKNTVYLQMNSLKPEDTAVYYCNVERRRPPHYYSDYDFDWGQGTQVTVSS
notes: as for B1
B8: h_Nb1 (expressed from pFUSE-hIgG1-Fc) (Fc fusion)
chain: DVQLQESGGGLVQPGGSLRLSCAASGFTFSSYAMSWVRQAPGKGLEWVSDINSGGDNTDYADSVKGRFTISRDNAKNTLYLQMNSLKPEDTAVYYCARGPKLCFSSWGQGTQVTVSS
notes: Candidates were cloned into pFUSE-mIgG2b-Fc and pFUSE-hIgG1-Fc; not shown: human IgG1 Fc as encoded by the pFUSE-hIgG1-Fc vector
B9: h_Nb2 (expressed from pFUSE-hIgG1-Fc) (Fc fusion)
chain: DVQLQESGGGLVQPGGSLRLSCAASGFTFGDRWMYWLRQAPGKGLEWVSSINPAGRSTYYADSVKGRFTISRDNAKNTLYLQMNSLKSEDTAVYYCTKDPGGYQKGQGTQVTVSS
notes: as for B8

In this experiment the target is T1, human PD-L1 on stably transfected cell line HEK293T/hPD-L1 (human, UniProt Q9NZQ7 19-290).
T1 construct: whole, on cells
T1 sequence (Q9NZQ7 19-290): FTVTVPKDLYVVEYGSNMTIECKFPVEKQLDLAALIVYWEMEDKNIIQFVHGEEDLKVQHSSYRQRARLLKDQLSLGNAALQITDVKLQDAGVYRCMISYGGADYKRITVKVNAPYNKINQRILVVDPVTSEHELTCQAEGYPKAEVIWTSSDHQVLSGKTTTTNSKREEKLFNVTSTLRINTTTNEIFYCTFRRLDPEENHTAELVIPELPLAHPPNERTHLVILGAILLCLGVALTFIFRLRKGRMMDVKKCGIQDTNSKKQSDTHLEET
Put plainly: flow cytometry on HEK293T/hPD-L1 cells, 10 ug/ml nanobody, anti-human IgG Fc (FITC). As for the experimental part:
The stably transfected cell line HEK293T/hPD-L1 was digested and centrifuged, and the supernatant was removed. The cells were washed once with PBS and the cell density was adjusted to 2.5×10⁶ cells/mL. 100 μL of cell suspension was added to each cell sample, i.e., 2.5×10⁵ cells/sample. Different anti-human PD-L1 candidate nanobodies (at a concentration of 10 μg/ml) were added into the samples. The samples were incubated in a 4° C. refrigerator for 20 min and then centrifuged to remove the supernatant, and washed once with PBS. The diluted antibody anti-human IgG Fc (FITC) was used as a secondary antibody to resuspend the above cells. The abtained samples were incubated in a 4° C. refrigerator for 20 min and centrifuged to remove the supernatant. The cells were washed twice with PBS, transferred to a flow tube; and detected on a flow cytometer to obtain the binding activity of the candidate nanobody with human PD-L1, as shown in FIG. 1.
(A flow cytometer gives signals particle by particle.)
For the molecule B1, the binding result is “binds”.

Turning to B2, the binding result was “binds”.

Regarding B3, the binding result is “binds”.

On to B4, for which the binding result is listed as “binds”.

B5: the binding result is “binds”.

B6: the binding result is given as “binds”.

For the molecule B7, the binding result is reported as “binds”.

Regarding B8, the binding result is recorded as “binds”.

For the molecule B9, the binding result is on record as “binds”.

Source of the values: patent publication US20250197503A1 (SHANGHAI INSTITUTE OF MATERIA MEDICA CHINESE ACADEMY OF …, published 2025).
